Results as given in patent publication US20260258115A1 (MAPP BIOPHARMACEUTICAL, published 2026).

Columns and labels:
[1] = target: T1, RSV postfusion F (postF), subtype A (respiratory syncytial virus subtype A, UniProt P03420 26-513); assay: BLI
T1 construct: also called Postfusion subtype A; F deltaFP

[2] = target: RSV F on RSV subtype A virus (mKate-RSV A2) (respiratory syncytial virus A2, UniProt P03420 26-574); assay: cell-based or functional assay
[3] = target: RSV F on RSV subtype B virus (mKate-RSV B 18537) (respiratory syncytial virus B 18537, UniProt P13843 26-574); assay: cell-based or functional assay
[4] = target: T2, RSV prefusion F (preF), subtype B (respiratory syncytial virus subtype B); assay: BLI, IgG
T2 construct: also called Prefusion subtype B

B1: ADI-24842 (antibody, V domains shown)
VH: QVQLVQSGGGLVKPGGSLRLSCAASGFTFSSYSMNWVRQAPGKGLEWVSSISSSSSYIYYADSVKGRFTISRDNAKNSLYLQMNSLRAEDTAVYYCARVPPHDYGGYYFDYWGQGTLVTVSS
VL: QSVVTQPPSVSGAPGQRVTISCTGSSSNIGAGYDVHWYQQLPGTAPKLLIYRNSNRPSGVPDRFSGSKSGTSASLAIIGLQAEDEADYYCQSYDSSLSVVFGGGTKLTVL
notes: full-length IgG
[1]
  binding result: no binding
[2]
  Neut IC50 subtype A: 0.03 µg/mL
[3]
  Neut IC50 subtype B: 0.03 µg/mL
[4]
  Kd: 2.76 nM

B2: ADI-24849 (antibody, V domains shown)
VH: QVQLVQSGGVVVQPGGSLRLSCAASGFTFDDYTMHWVRQAPGKGLEWVSLIGWDGGSTYYADSVKGRFTISRDNSKYSLYLQMNSLRTEDTALYYCAKDLGSSSGYFLGRDYYGMDVWGQGTTVTVSS
VL: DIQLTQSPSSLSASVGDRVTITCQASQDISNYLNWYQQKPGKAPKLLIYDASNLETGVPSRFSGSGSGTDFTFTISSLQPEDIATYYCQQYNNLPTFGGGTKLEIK
notes: full-length IgG; also called Ab 410
[1]
  binding result: no binding
[2]
  Neut IC50 subtype A: 0.01 µg/mL
[3]
  Neut IC50 subtype B: 0.03 µg/mL
[4]
  Kd: 1.17 nM

B3: ADI-24850 (antibody, V domains shown)
VH: QVQLVQSGGGLVKPGGSLRLSCAASGFTFSSYSMNWVRQAPGKGLEWVSSISSSSSYIYYADSVKGRFTISRDNAKNSLYLQMNSLRAEDTAVYYCAREDYGDYYYYYMDVWGKGTTVTVSS
VL: QPVLTQPPSVSGAPGQRVTISCTGSSSNIGAGYDVHWYQQLPGTAPKLLIYGNSNRPSGVPDRFSGSKSGTSASLAITGLQAEDEADYYCQSYDSSLSGYVFGTGTKVTVL
notes: full-length IgG
[1]
  binding result: no binding
[2]
  Neut IC50 subtype A: 0.94 µg/mL
[3]
  Neut IC50 subtype B: 4.17 µg/mL
[4]
  Kd: 5.56 nM

B4: ADI-24857 (antibody, V domains shown)
VH: EVQLLESGGGLVKPGGSLRLSCAASGFTFSSYSMNWVRQAPGKGLEWVSSISSSSSYIYYADSVKGRFTISRDNAKNSLYLQMNSLRAEDTAVYYCAREGYYYGSGSYLDYWGQGTLVTVSS
VL: QSVVTQPPSVSGAPGQRVTISCTGSSSNIGAGYDVHWYQQLPGTAPKLLIYGNSNRPSGVPDRFSGSKSGTSASLAITGLQAEDEADYYCQSYDSSLSVVFGGGTKLTVL
notes: full-length IgG
[1]
  binding result: no binding
[2]
  Neut IC50 subtype A: 0.18 µg/mL
[3]
  Neut IC50 subtype B: 1.4 µg/mL
[4]
  Kd: 3.71 nM

B5: ADI-24860 (antibody, V domains shown)
VH: EVQLLESGGGLVKPGGSLRLSCAASGLTFSDYYMSWIRQAPGKGLEWVSYISGGSSYSNYADSVKGRFTISRDNAKNSLYLQMNSLRAEDTAVYYCARGYCSGSSCYEAFDIWGQGTTVTVSS
VL: SYVLTQPPSVSGAPGQRVTISCTGSSSNIGAGFDVHWYQQLPGTAPKLLIYGNSDRPSGVPDRFSGSKSGTSASLAITGLQAEDEADYYCQSYDSSLSGYVFGTGTKVTVL
notes: full-length IgG; also called Ab 420
[1]
  binding result: no binding
[2]
  Neut IC50 subtype A: 0.06 µg/mL
[3]
  Neut IC50 subtype B: 0.09 µg/mL
[4]
  Kd: 1.56 nM

B6: ADI-19475 (antibody, V domains shown)
VH: EVQLLESGAEVKKPGASVKVTCKASGYTFTHFGINWVRQAPGQGLEWLGWISAYNGNTNYVQKIQGRVTMTTDTSTNTAYMELRSLRSDDTAVYYCARGPPVEAAGTFDYWGQGTLVTVSS
VL: DIVLTQSPLSLPVTLGQPASISCRSSQSLVYSDGNTYLTWFQQRPGQSPRRLIYKVSNRDSGVPDRFSGSGSGTDFTLQISRVEAEDVGVYYCMQGTHWPFTFGPGTKVEIK
notes: full-length IgG
[1]
  binding result: no binding
[2]
  Neut IC50 subtype A: 0.05 µg/mL
[3]
  Neut IC50 subtype B: 0.04 µg/mL
[4]
  Kd: 4.25 nM

B7: ADI-19501 (antibody, V domains shown)
VH: QVQLVQSGAEVKKPGASVKVSCKASGYAFTNYGVSWVRQAPGQGLEWMGWISVYNGNTNYAQKLQGRVTMTTDTSTSTAYMELRSLRSDDTALYYCARDPPSEGAAGLFDYWGQGTLVTISS
VL: DIVMTQSPLSLPVTLGQPASFSCRSSQSLVYSDGNTYLSWFQQRPGQSPRRLIYKVSNRDSGVPDRFSGSGSGTDFTLKISRVEAEDVGVYYCMQGTHWPCTFGQGTKVEIK
notes: full-length IgG
[1]
  binding result: no binding
[2]
  Neut IC50 subtype A: 0.02 µg/mL
[3]
  Neut IC50 subtype B: 0.02 µg/mL
[4]
  Kd: 1.59 nM

B8: ADI-22757 (antibody, V domains shown)
VH: EVQLLESGAEVKKPGASVKVSCKASGYTFSNYGISWVRQAPGQGLEWMGWISVYNGNTEYAQKFQGRLTMTTDTSTSTAYMELRSLRSDDTAVYYCARDPPAVAASFMDVWGQGTTVTVSS
VL: EIVLTQSPLSLPVTLGQPASISCRSSQSLVHSEGNTYLSWFQQRPGQSPRRLIYKVSNRDSGVPDRFSGSGSGTDFTLKISRVEAEDVGLYFCMQGTHWPPTFGGGTKVEIK
notes: full-length IgG
[1]
  binding result: no binding
[2]
  Neut IC50 subtype A: 0.06 µg/mL
[3]
  Neut IC50 subtype B: 0.07 µg/mL
[4]
  Kd: 0.538 nM

B9: ADI-22774 (antibody, V domains shown)
VH: EVQLLESGGGLVKPGGSLRLSCAASGFTFSSYSMNWVRQAPGKGLEWVSSISSSSSYIYYADSVKGRFTISRDNAKNSLYLQMNSLRAEDTAVYYCAREGASGYNYRYYFDYWGQGTLVTVSS
VL: QSVLTQPPSVSGAPGQRVTISCTGSSSNIGAGYDVHWYQQFPGAAPKLLIYGNNNRPSGVPDRFSGSKSGTSASLAITGLQADDEADYYCQSYDSSLSGYVVFGGGTKLTVL
notes: full-length IgG
[1]
  binding result: no binding
[2]
  Neut IC50 subtype A: 0.29 µg/mL
[3]
  Neut IC50 subtype B: 7.53 µg/mL
[4]
  Kd: 4.28 nM

B10: ADI-25524 (antibody, V domains shown)
VH: EVQLLESGGGLVKPGGSLRLSCAASGFTFSSYSMNWVRQAPGKGLEWVSSISSSSSYIYYADSVKGRFTISRDNAKNSLYLQMNSLRAEDTAVYYCAREWSPIVVVTNAFDIWGQGTMVTVSS
VL: QSVLTQPPSVSGAPGQRVTISCTGSSSNIGAGYDVHWYQQLPGTAPKLLIYGNSNRPSGVPDRFSGSKSGTSASLAITGLQAEDEADYYCQSYDSSLSGWVFGGGTKVTVL
notes: full-length IgG
[1]
  binding result: no binding
[2]
  Neut IC50 subtype A: 1.77 µg/mL
[3]
  Neut IC50 subtype B: 2.09 µg/mL
[4]
  Kd: 23.4 nM

B11: ADI-14333 (antibody, V domains shown)
VH: EVQLVETGGGLVKPGGSLRLSCADSGFPFSSYSMHWVRQAPGKGLEWVASISSSSSFINYADSVKGRFTISRDNAKNSLYLQMNSLRAEDTAVYFCAREAACGGDCYGYYFDYWGQGTLVTVSS
VL: QSVVTQPPSASGAPGQRVTISCTGSSSNIGAGYDVHWYQQLPGTAPKVLISGNSNRPSGVPARFSGSKSGTSASLAITGLQAEDEADYYCQSYDSSLSGSVFGGGTQLTVL
notes: full-length IgG; also called Ab 1
[1]
  binding result: no binding
[2]
  Neut IC50 subtype A: 0.07 µg/mL
[3]
  Neut IC50 subtype B: 0.09 µg/mL
[4]
  Kd: 0.904 nM

B12: ADI-14335 (antibody, V domains shown)
VH: EVQLVESGGGLVQPGRSLRLSCTASGFTFGDYAMSWVRQAPGKGLEWVGFIRSNAFGGTSEYAASVKGRFTISRDDSKSIAYLQMNSLKTEDTAVYYCTRDGIHDYGDSYYYYGMDVWGQGTTVTVSS
VL: DIQLTQSPSSLSASVGDRVTITCRASQTVTTYLNWYQQKPGKAPKLLIYGASSLQSGVPSRFSGSGSGTDFTLTINSLQPEDFATYYCQQTYSTVTFGPGTKVEIK
notes: full-length IgG; also called Ab 3
[1]
  binding result: no binding
[2]
  Neut IC50 subtype A: 0.32 µg/mL
[3]
  Neut IC50 subtype B: 0.1 µg/mL
[4]
  Kd: 0.889 nM

B13: ADI-14337 (antibody, V domains shown)
VH: EVQLVESGGGLVKPGGSLRLSCAASGFTFSSYSMNWVRQAPGKGLEWVSSISSSSSYIYYADSVKGRFTISRDNAKNSLYLQMNSLRAEDTAVYYCAREYYDSSGYTNWFDPWGQGTLVTVSS
VL: QPVLTQPPSVSGAPGQRVTISCTGSSSNIGAGYDVHWYQQLPGTAPKLLIYGNSNRPSGVPDRFSGSKSGTSASLAITGLQAEDEADYYCQSYDSSLAWVFGGGTQLTVL
notes: full-length IgG; also called Ab 5
[1]
  binding result: no binding
[2]
  Neut IC50 subtype A: 0.1 µg/mL
[3]
  Neut IC50 subtype B: 0.07 µg/mL
[4]
  Kd: 2.11 nM
